Data taken from the nanobody polyreactivity screen of Harvey et al. (2022).

Experiment: yeast display, Sf9 membrane polyspecificity reagent, FACS + sequencing; frameworks hold sequencing errors
How it was run: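 Polyreactivity labels are assigned by the sorting gate from which each nanobody was recovered. The gates were low and high (top ~1%), set on anti-HA fluorescence for expression and streptavidin fluorescence for reagent binding. Before sorting, galactose-induced (36–48 hours) yeast display cells were stained for 1 hour at 4 °C with 10% biotinylated, detergent-solubilized Sf9 membrane reagent.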

Sequence	polyreactivity (PSR sort gate)
QVQLVESGGGLVQAGGSLRLTCAASGSTFGDYDMGWYRQAPGKERELVAAISNGGSTYYADSVKGRFTISRDNAKNTVYFQMNSLKPEDTAVYYCNADNVEIRSTYEYGRYLYGYWGQGTQVTVSS	low polyreactivity
QVQLVESGGGLVQAGGSLRLSCAASGSTFDIYVMGWYRQAPGKERELVAAISRVGNTSYADSVKGRFTISRDNAKNTVYLQMNSLNPEDTAVYYCAADAPSWYDRQYDYWGQGNQVTVSS	low polyreactivity
QVQLVESGGGLVQAGGSLRFSCAASGSTFRDYAMGWYRQAPGKERELVAAISSRGATTYYADSVKGRFTISRDNAKNTVYLQMNSLKPEDTAVYYCNARQRRNPGGYGYWGQGTQVTVSS	high polyreactivity
QVQLVESGGGLVQAGGSLRLSCAASGRTFVYYDMGWSRPAPGKERELVAAIDSSGSTYYADSVKGRFTISRDNAKNTVYLQMNSLKPEDTAVYYCAAGYWFFPYWYDYWGQGTQVTVSS	high polyreactivity
QVQLVESGGGLVQAGGSLRLSCAASGRIFEKYAMGWYRQAPGKERELVAAISYSGGSTYYADSVKGRFTISRDNAKNTVYLQMNSLKPEDTAVYYCARYSRTQAYDYWGQGTQVTVSS	high polyreactivity
QVQLVESGGCLVQAGGSLRLSCAASGSTFTPYVMGWYRHAPGKERELVAAISKRGGSTYYADSVKGRFTISRDNAKNTVYLQMNRLKPEDTAVYYCAAVQPAWGNGYWGQGTQVTVSS	high polyreactivity
QVQLVESGGGLVQAGGSLRLSFAASGRIFYVYAMGWYRQAPGKERELVAAITYSGGSTYYADSVKGRFTISRDNAKNTVYLQMNSLKPEDTAVYYCATEGSYTRWSRGLDYWGQGTQVTVSS	low polyreactivity
QVQLVESGGGLVQAGGSLRLSCAASGRIFSRYAMGWYTQAPGKERELVAAITQSGTSTYDADSVKGRFTISRDNAKNTVYLQMNSLKPEDTAVYFCNAYRQYRYDYWGQGTQVTVSS	low polyreactivity
QVQLVESGGGLVQAGGSLRLSCAASGFTFYRNAMGWYRQAPGKEWELVAGITRSGGSTYYADSVKGRFTISRDNAKNTVYLQMNSLKPEDTAVYYCNKAYGGDKYSGTYDYWGQGTQVTVSS	high polyreactivity
QVQLVESGGGLVQAGGSLRLSCAASGFTFRGYAMGWYRPAPGTERELVAAITKRGGSTYYADSVKGRFTISRDNAKNTVYLQMNSLKPEDTAVYYCAKTRRFGRYNAYWYRTYGYDYWGQGSQVTVSS	high polyreactivity
QVQLVESGGGLVQAGGSLRLSCAASGSIFYFYAMGWYRQAPGKERELVAAISSRGTSTYYADSVKGRFTISRDNAKNTVYLQMNSLKPEDTAVYYCAAQIYVYYQRRPPYDYWGQGTQVTVSS	high polyreactivity
QVQVVESGGGLVQAGGSLRLSCAASGRIFYVYAMGWYRQAPGKERELVAAITISGGSTYYADSVKGRFTISRDNAKNTVYLQMNSLKPEDTAVYYCATDRSSHWYDYWGQGTQVTVSS	low polyreactivity
QVQLVESGGGLVQAGGSLRLSCAASGPIFPAYAMGWYRQAPGKERELVASIRRGGITYADSVKGRFTISRDNAKNTVYLQMNSLKPEDTAVYYCNADYRGWGYHMDYWGQGTQVTVSS	low polyreactivity
QVQLVESGGGLVQAGGSLRLSCADSGSIFDFNALGWYRQAPRKERELVAAITWSGGSTYYSDSVKGRFTISRDYAKNTVYLQMNSLKPEDTAVYYCAADSLYDDFYYWGQGTQVTVSS	low polyreactivity
QVQLVESGGGLVQAGGSLRLSCAASGGTFLSNAMGWYRQAPGKERELVASISWGGGSTTYADSVKGRFTISRDNAKNTVYLQMNSLKPEDTAVYYCNALDGPGYYVDYDYWGQGTQVTVSS	low polyreactivity
QVQLVESGGGLVQAGGTLRLSCAATGSTFNINAMGWYRQAPGKERELFAAITRGGTNYADSVKGRFTISRDNAKNTVYLQMNSLKPEDTAVYYCAARGTGGSVKVTSLQQGGYWGQGTQVTVSS	high polyreactivity
QVQLVESGGGLVQEGGSLRLSCAASGRTSNINAMGWYRQAPGKERELVAAINSDGSTYYAYSVKGRFTISRDNAKNTVYLQMNSLKPEDTAVYYCAAVSLFRDSQFDYWGQGTQVTVSS	low polyreactivity
QVQLVESGGGLVQAGGSLRLSCAASGFIFKRYAMGWYRQAPGKERELVAAITLSGGDTYYADSVKGRFTISRDNAKNTVYLQMNSLKPEDTAVYYCNAPYIGENYYWGQGTQVTVSS	high polyreactivity
QVQLVESGGGLVQAGGSLRLSCAASGSTFYYNAMGWYRQAPGKERELDARISRSGGSTYADSVKGRFTISRDNAKNTVYLQMNSLKPEDTAVYYCNADAYGTPEFTSYAVRYDYWGQGTQVTVSS	low polyreactivity
QVQLVESGGGLVQAGGSLRLSCAASGIIFYYYAMGGYRQAPGKEREFVAGIRWSSGSTYYADSVKGRFTISRDNAKNTVYLQMNSLKPEDTAVYYCAADSSGEYPGGYWGQGTQVTVSS	low polyreactivity
QVQLVESGGGLVQAGGSLRLSCAASGSIFARNAMGWYRQAPGKERELVAVITTGGRTYYADSVKGRFTISRDNAKNTVYLQMNSLKPEDTAVYYCATRVIYGQSGGYWGQGTQVTVSS	high polyreactivity
QVQLVESGGGLVQAGGSLRLSCAASGFTFVPYDMGWYRQAPGKERELVAAITDSSGSTHYADSVKGRFTFSRDNAKNTVYLQMNSLKPEDTAVYYCAADDSSRTTYDYWGQGTQVTVSS	low polyreactivity

Sequence	polyreactivity (PSR sort gate)
QVQLVESGGGLVQAGGSLRLSCAASGSIFKKYAMGWYRQAPGKERELVAAITSGGSTYYADSVKGRFTISRDNAKNTVYLQMNSLKPEDTAVYYCATYRKGSLGSWGQGTQVTVSS	high polyreactivity
QVQLVESGGGLVQAGGSLRLSCAASGFTFVYYAMGWYRQAPGKERELVPAISWNGGSTYYADSVKGRFTISRDNAKNTVYLQMNCLKPEDTAVYYCAAEYSYRLLQTFYYPYGYWGQGTQVTVSS	high polyreactivity
QVQLVESGGGLVQSGGSLRLSCAASGITSHPYDMGWSRQAPGKERELVAVITSGGSTSYADSVKGRFTISRDNAKNTVYLQMNRLKPEDTAVYYCNADWFTPAQPWYRYFIRYDYWGQGTEVTVSS	low polyreactivity
QVQLVESGGGLVQAGGSLRLSCAAYGSIFYYNAMGWYRQAPGKERELVAAITKSGTRTNYADSVKGRFTLSRDNAKNTVYLQMNSLKPEDTAVYYCAAEDQYYRYLFAYEYWGQGTQVTVSS	high polyreactivity
QVQLVESGGGLVQAGGSLRLSCAASGLTFYGYAMGWYRQAPGKERELVAAIRWSGGRTYYADSVKGRFTISRDNAKNTVYLQMNSLKPEDTAVYYCAADYRRYYGGDYWGQGTQVTVSS	low polyreactivity
QVQLVESGRGLVQAGGSLRLSCAASGRIFRYYAMGWYRQAPGKERELVATITDGGSTSYADSVKGRFTISRDNAKNTVYLQMNSLKPEDTAVYYCARDPLPSYWKVWSRPTFDYWGQGTQVTVSS	low polyreactivity
QVQLVESGGGLVQAGGSLRLSCAASGRTFEQYAMGWYRQARGKERELVAAISGSGGSTFYADSVKGRFTISRDNAKNTVYLQMNSLKPEDTAVYYCNAPGDGYLYDHTYDYWGQGTQVTVSS	low polyreactivity
QVQLVESGGGLVQAGGSLRLSCAASGRTFGRYTMGWYRQAPGKERELVATIRFNGGSTYYADSVKGRFTISRDNAKNTVYLQMNSLKPEDTAVYYCASYRGAYWGQGTQVTVSS	high polyreactivity
QVQLVESGGGLVQAGGSLRLSCAASGFTFSSYAMGWYRQAPGKERELVAAITTRGGTFYADSVKGRFTISRDNAKNTVYLQMNSLKPEDTAVYYCAARRVSGRGYWGQGTQVTVSS	high polyreactivity
QVELVESGGGLVQAGGSLRLSCAASGFIFYRYTMGWYRQAPGKEREVVAAISRRGGSTYYADSVKGRFTISRDNAKNTVYLQLNSLKPEDTAGYYCAARLGGYPRQGRYDYWGQGTQVTVSS	high polyreactivity
QVQLVESGGGLVQAGGSLRLSCAASGSTFKSYAMGWYRQAPGKERELVAAITHRGSTYYADSVKGRFTTSRDNAKNTVYLQMNSLKPEDTAVYYCNVRRIGNGRRVDYWGQGTQVTVSS	high polyreactivity
QVQLVESGGGLVQAGGSLRLSCAASGSTIRDYAMGWYRQAPGKERELVAVIDNSGGRTYYADSVKGRFTISRDNAKNTVYLQMNSLKAEDTAVYYCNTRRIAQYGYWGQGTQVTVSS	high polyreactivity
QVQLVESGGGLVQAGGSLRLSCAASGSTFSYYAMGWYRQAPGKEREFVAAISSSGGRTYYADSVKGRFTISRDNAKNTVYLQMNSLKPEDTAVYYCNAYYLAEYDYWGQGTQVTVSS	high polyreactivity
QVQLVESGGGLVQAGGSLRLSCAASGFIFYYYAMGWYRQAPGKERELVAAISRGGSTYYADSVKGRFTISRDNAKNTVYLQMNSLKPEDTAVYYCAAEAFPVYSYYYWGQGTQVTVSS	high polyreactivity
QVQLVESGRGLVQAGGSLRLSCAASGRIFVSNVMGWYRQAPGKERELVATITIGGITYYADSVKGRFTISRDNAKNTVYLQMNSLKPEDTAVYYCAADRRRFSPYGLYIHPGFDYWGQGTQVTVSS	low polyreactivity
QVQLVESGGGLVQSGGSLRLSCAASGIIFEYYDMGWYRQAPGKEREFVAAIDSGGSTYYADSVKGRFTISRDNAKNTVYLQMNSLKPEDTAVYYCAASRPPNTSNTGYGSWGQGTQVTVSS	low polyreactivity
QVQLVESGGGLVQAGGSLRLSCAAYGSTLTWNAMGWYRQAPGKERELVAAITGVGSTNYADSVKGRFTISRDNAKNTVYLQMNSLKPEDSAVYYCAAQGSGSTLYEYWGQGTQVTVSS	low polyreactivity
QVQLVESGGGIFQAGGSLRLSCSASGFTLQGYAMVWSRQAPGKERELVAAISWSGGSTYYADSVKGRFTISRDNAKNTVYLQMNSLKPEDTAVYYCAAETYFAEYWGQGTQVTVSS	high polyreactivity
QVQLVESGGGLVQAGGSLRLSCAASGSIFGKYAMGWYRQAPGKERELVATINRGGGGTYYADSVKGRFTISRDNAKNTVYLQMNSLKPEDTAVYYWAVSYRSYVWYGYWGQGTQVTVSS	high polyreactivity
QVQLVESVGRLVQAGGSLRLSCDASGSIFYYAMGWYRQAPGKERELVAAITWRGGRTYYADSVKGRFTITRDNEKNTVYLQLNSLKPEDTAVYNCNAVAPCKYNHWGQGTQVTVSS	high polyreactivity
QVQLVESGGGLVQAGGSLRLSCAASGRTFPYYDMGWYRQAPGKERELVAAITSGGTTNYADSVKGRFTISRDNAKNTVYLQMNSLKPEDTAVYYCAAGSPWYYFSSYGYWGQGTQVTVSS	low polyreactivity
